From paper PMC9352680, “A comprehensive thermodynamic model for RNA binding by the Saccharomyces cerevisiae Pumilio protein PUF4”

T1: PUF4 RNA-binding domain (Saccharomyces cerevisiae, UniProt P25339 537-888)
T1 sequence: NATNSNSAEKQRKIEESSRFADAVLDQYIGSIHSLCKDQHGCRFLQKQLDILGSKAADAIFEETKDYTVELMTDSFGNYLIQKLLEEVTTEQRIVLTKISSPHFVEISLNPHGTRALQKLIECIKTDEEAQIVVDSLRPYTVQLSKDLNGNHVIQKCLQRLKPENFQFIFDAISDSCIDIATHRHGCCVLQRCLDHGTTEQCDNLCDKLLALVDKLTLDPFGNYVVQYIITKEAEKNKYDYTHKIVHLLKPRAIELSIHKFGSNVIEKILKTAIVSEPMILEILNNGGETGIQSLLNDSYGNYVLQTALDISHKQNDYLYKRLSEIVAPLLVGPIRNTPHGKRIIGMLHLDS

B1: Ic_S1_P5E.1_K5.1_C5.1_H5.1_A5.1_[T5C]_[T6A]_[A7C]_F5.1_[T8A]_[T9C]_[A10C]_T5.1 (ssRNA)
RNA: UCUCUUUGUACACACCUCUCUU
B2: Ib_S1_P3E.1_K3.1_C3.1_H3.1_[T1C]_A3.1_[T5C]_F3.1_T3.1 (ssRNA)
RNA: UCUCUUCGUACAUAUCUCUU
B3: Ic_S1_P5E.1_K5.1_C5.1_H5.1_A5.1_[T5A]_[T6C]_[A7T]_F5.1_[T8C]_[T9A]_[A10G]_T5.1 (ssRNA)
RNA: UCUCUUUGUAACUCAGUCUCUU
B4: Ic_S1_P4E.1_K4.1_C4.1_H4.1_A4.1_F4.1_[A9G]_T4.1 (ssRNA)
RNA: UCUCUUUGUAUAUUGUCUCUU
B5: Ic_S1_P5E.1_K5.1_C5.1_H5.1_A5.1_[T6A]_[A7C]_F5.1_[T8G]_[T9G]_[A10C]_T5.1 (ssRNA)
RNA: UCUCUUUGUAUACGGCUCUCUU
B6: Ic_S1_P5E.1_K5.1_C5.1_H5.1_A5.1_[T5C]_[T6C]_[A7T]_F5.1_[T8A]_[A10T]_T5.1 (ssRNA)
RNA: UCUCUUUGUACCUAUUUCUCUU
B7: Ic_S1_P5E.1_K5.1_C5.1_H5.1_A5.1_[T5A]_[T6C]_[A7T]_F5.1_[T8A]_[T9A]_T5.1 (ssRNA)
RNA: UCUCUUUGUAACUAAAUCUCUU
B8: Ic_S1_P5E.1_K5.1_C5.1_H5.1_A5.1_[T6A]_[A7G]_F5.1_[T8C]_[T9A]_[A10T]_T5.1 (ssRNA)
RNA: UCUCUUUGUAUAGCAUUCUCUU
B9: Ic_S1_P5E.1_K5.1_C5.1_H5.1_A5.1_[T6A]_[A7T]_F5.1_[T8C]_[T9A]_[A10G]_T5.1 (ssRNA)
RNA: UCUCUUUGUAUAUCAGUCUCUU
B10: Ic_S1_P5E.1_K5.1_C5.1_H5.1_A5.1_[T5A]_[T6C]_[A7C]_F5.1_[T8C]_[T9G]_T5.1 (ssRNA)
RNA: UCUCUUUGUAACCCGAUCUCUU
B11: Ic_S1_P5E.1_K5.1_C5.1_H5.1_A5.1_[T5C]_[T6C]_[A7T]_F5.1_[T8C]_[T9C]_[A10C]_T5.1 (ssRNA)
RNA: UCUCUUUGUACCUCCCUCUCUU
B12: Ic_S1_P5E.1_K5.1_C5.1_H5.1_A5.1_[T5A]_[T6A]_[A7T]_F5.1_[T8C]_[T9C]_[A10C]_T5.1 (ssRNA)
RNA: UCUCUUUGUAAAUCCCUCUCUU
B13: Ic_S1_P5E.1_K5.1_C5.1_H5.1_A5.1_[T5A]_[A7G]_F5.1_[T8G]_[A10T]_T5.1 (ssRNA)
RNA: UCUCUUUGUAAUGGUUUCUCUU
B14: Ic_S1_P5E.1_K5.1_C5.1_H5.1_A5.1_[T6C]_F5.1_[T8A]_[A10G]_T5.1 (ssRNA)
RNA: UCUCUUUGUAUCAAUGUCUCUU
B15: Ic_S1_P5E.1_K5.1_C5.1_H5.1_A5.1_[T5A]_[T6C]_[A7G]_F5.1_[T8A]_[A10G]_T5.1 (ssRNA)
RNA: UCUCUUUGUAACGAUGUCUCUU
B16: Ic_S1_P5E.1_K5.1_C5.1_H5.1_A5.1_[T5C]_[T6A]_F5.1_[T9A]_[A10G]_T5.1 (ssRNA)
RNA: UCUCUUUGUACAAUAGUCUCUU
B17: Ic_S1_P5E.1_K5.1_C5.1_H5.1_A5.1_[T5G]_[T6C]_[A7T]_F5.1_[T8A]_[T9C]_[A10G]_T5.1 (ssRNA)
RNA: UCUCUUUGUAGCUACGUCUCUU
B18: Ic_S1_P5E.1_K5.1_C5.1_H5.1_A5.1_[T5A]_F5.1_[T9G]_[A10G]_T5.1 (ssRNA)
RNA: UCUCUUUGUAAUAUGGUCUCUU
B19: Ic_S1_P5E.1_K5.1_C5.1_H5.1_A5.1_[T6C]_[A7T]_F5.1_[T9C]_[A10C]_T5.1 (ssRNA)
RNA: UCUCUUUGUAUCUUCCUCUCUU
B20: Ic_S1_P5E.1_K5.1_C5.1_H5.1_A5.1_[T6A]_[A7T]_F5.1_[T8A]_[A10T]_T5.1 (ssRNA)
RNA: UCUCUUUGUAUAUAUUUCUCUU
B21: Ib_S1_P3E.1_K3.1_C3.1_H3.1_[T1C]_A3.1_[A6G]_F3.1_T3.1 (ssRNA)
RNA: UCUCUUCGUAUGUAUCUCUU
B22: Ic_S1_P5E.1_K5.1_C5.1_H5.1_A5.1_[T5G]_[T6C]_[A7C]_F5.1_[A10T]_T5.1 (ssRNA)
RNA: UCUCUUUGUAGCCUUUUCUCUU
B23: Ic_S1_P5E.1_K5.1_C5.1_H5.1_A5.1_[T5A]_[T6A]_F5.1_[T8C]_[T9A]_[A10C]_T5.1 (ssRNA)
RNA: UCUCUUUGUAAAACACUCUCUU
B24: Ic_S1_P5E.1_K5.1_C5.1_H5.1_A5.1_[T5C]_[T6G]_[A7T]_F5.1_[T8G]_[T9C]_[A10T]_T5.1 (ssRNA)
RNA: UCUCUUUGUACGUGCUUCUCUU
B25: Ic_S1_P5E.1_K5.1_C5.1_H5.1_A5.1_[T5A]_[T6C]_F5.1_[A10C]_T5.1 (ssRNA)
RNA: UCUCUUUGUAACAUUCUCUCUU
B26: Ic_S1_P5E.1_K5.1_C5.1_H5.1_A5.1_[T6G]_[A7G]_F5.1_[T8C]_[A10C]_T5.1 (ssRNA)
RNA: UCUCUUUGUAUGGCUCUCUCUU
B27: Ib_S1_P3E.1_K3.1_C3.1_H3.1_[T1G]_A3.1_[A6T]_F3.1_T3.1 (ssRNA)
RNA: UCUCUUGGUAUUUAUCUCUU
B28: Ic_S1_P5E.1_K5.1_C5.1_H5.1_A5.1_[T5A]_[T6C]_[A7C]_F5.1_[T8G]_T5.1 (ssRNA)
RNA: UCUCUUUGUAACCGUAUCUCUU
B29: Ic_S1_P5E.1_K5.1_C5.1_H5.1_A5.1_[T5A]_[T6G]_[A7T]_F5.1_[T8A]_[T9A]_T5.1 (ssRNA)
RNA: UCUCUUUGUAAGUAAAUCUCUU
B30: Ic_S1_P5E.1_K5.1_C5.1_H5.1_A5.1_[T5C]_[T6A]_[A7C]_F5.1_[T8G]_[T9C]_[A10G]_T5.1 (ssRNA)
RNA: UCUCUUUGUACACGCGUCUCUU
B31: Ic_S1_P5E.1_K5.1_C5.1_H5.1_A5.1_[T5A]_[T6C]_[A7G]_F5.1_[T8G]_[T9C]_[A10C]_T5.1 (ssRNA)
RNA: UCUCUUUGUAACGGCCUCUCUU
B32: Ic_S1_P5E.1_K5.1_C5.1_H5.1_A5.1_[T6C]_[A7C]_F5.1_[T8A]_[A10T]_T5.1 (ssRNA)
RNA: UCUCUUUGUAUCCAUUUCUCUU

Biological target: T1, PUF4 RNA-binding domain
Experiment: Mg; RNA-MaP; 20 mM Na-HEPES pH 7.4, 30 mM KOAc, 0.75 mM MgCl2, 0.1% Tween-20, 5% glycerol, 0.1 mg/mL BSA, 2 mM DTT; 25 C; 0.0125-409.6 nM protein
Conditions: tags: N-His6-TEV cleaved; C-SNAP kept, Cy3B-labelled; label: tethered on chip by stalled RNA polymerase

Binder | Kd [nM]
B1 | 76.8
B2 | 1050
B3 | 175
B4 | 3.06
B5 | 460
B6 | 48.7
B7 | 506
B8 | 32.4
B9 | 4.58
B10 | 1950
B11 | 414
B12 | 240
B13 | 1060
B14 | 354
B15 | 1000
B16 | 0.742

Binder | Kd [nM]
B17 | > 2300
B18 | 10.1
B19 | 74.7
B20 | 7.35
B21 | 932
B22 | 470
B23 | 56.4
B24 | 297
B25 | 15
B26 | > 2300
B27 | > 2300
B28 | 52.9
B29 | 2150
B30 | 709
B31 | > 2300
B32 | 119
